According to patent US20170267762A1 (APOLLOMICS, published 2017):
Changes are numbered by the printed parent chain.

B1: chimeric 6E1-hIgG4 (antibody, V domains shown)
VH: EVKLVESGGGLVKPGGSLKLSCAASGFTFSSYGMSWVRQTPEKRLEWVATISGGGRDTYYLDSVKGRFTISRDNAKNNLYLQMSSLRSEDTALYYCVRQYYDDWFAYWGQGTLVSNSA
VL: DIVLTQTPATLSVTPGDSVSLSCRASQSLSNNLHWYQQKSHESPRLLIKYASQSISGIPSRFSGSGSGTDFTLSINSVETEDFGMYFCQQSNSWPLTFGAGTKLEMKR
notes: Mouse variable regions with human IgG4 constant region
B2: chimeric 15H5-hIgG4 (antibody, V domains shown)
VH: EVKLVESGGGLVKPGGSLKLSCAASGFAFRSYDMSWVRQTPEKILEWVATISGGGSYTYYQDSVKGRFTISRDNARNTLYLQMSSLRSEDTALYYCASPYGPYFDYWGQGTTLTVSS
VL: DIQMNQSPSSLSASLGDTITITCHASQSINVWLSWYQQKPGNIPKLLIYRASNLHTGVPSRFSGSGSGTGFTLTISSLQPDDIATYYCQQGQSYPWTFGGGTKLEIKR
notes: as for B1
B3: chimeric 22A5-hIgG4 (antibody, V domains shown)
VH: EVKLVESGGGLVKPGGSLKLSCSASGFSFSYYDMSWVRQTPEKGLEWVATISGGGRNTYFIDSVKGRFTISRDNVKNNLYLLMSSLRSEDTALYYCASPYEGAVDFWGQGTSVTVSS
VL: DIVMTQSHKVMSTSVGDRVSITCKASQDVDNAVAWYQQNPGQSPKLLIKWASTRHHGVPDRFTGSGSGTDFTLTISTVQSEDLADFFCQQYSTFPYTFGGGTKLEIKR
notes: as for B1
B4: 14A6 murine anti-PD-1 antibody (antibody, V domains shown)
VH: DVQLQESGPGLVKPSQSLSLTCTVTGYSITSDYAWNWIRQFPGNQLEWMAYISYSGYTSYNPSLKSRISITRDTSRNQFFLQLNSVTTEDTATYYCARSLDYDYGTMDYWGQGTSVTVSS
VL: QIVLSQSPAILSASPGEKVTMTCRANSSVSSMHWYQQKPGSSPEPWIYAISNLAFGVPARFSGSGSGTSYSLTISRVEAEDAATYFCQQWNSRPPTFGGGTKLEIKR
notes: Purified hybridoma antibody; also called 14A6-mIgG1
B5: 10D1 murine anti-PD-1 antibody (antibody, V domains shown)
VH: B1 VH with V37L, I51M, T58I, L61P, V64M, V97A, S115T, N116V
VL: B1 VL with L29I, S74N, M106L
notes: Purified hybridoma antibody; also called 10D1-mIgG1
B6: 5A8 murine anti-PD-1 antibody (antibody, V domains shown)
VH: QVQLQQSGDELVRPGTSVKMSCKAAGYTFTNNWIGWVKQRPGHGLEWIGDFYPGGGYTNYNEKFKGKATLTADTSSSTAYMQLSSLTSEDSAIYYCARGYGTNYWYFDVWGAGTTVTVSS
VL: NIVMTQTPKILFISAGDRVTITCKASQSVSNDVAWYQQKPGQSPKLLIYYAFTRYIGVPDRFTGSGYGTDFTFTISTVQAEDLAVYFCQQDYSSPYTFGGGTKLEIKR
notes: Purified hybridoma antibody; also called 5A8-mIgG1
B7: chimeric 7D3-hIgG4 (antibody, V domains shown)
VH: B1 VH with A23G, T58I, L61P, F68L, S115T, N116V
VL: B1 VL with T7S, L29I, N32D, A51V, N92D, M106L
notes: as for B1

The binders below were run against T1, human PD-1 on cells (293T cells transfected with human PD-1) (human, UniProt Q15116 25-288) (assay: FACS blockage on hPD-1-293T cells, competitor biotin PD-L1).
T1 construct: whole, on cells; Also used as the target for the functional rows, where PD-1 stands on human T cells
T1 sequence (Q15116 25-288): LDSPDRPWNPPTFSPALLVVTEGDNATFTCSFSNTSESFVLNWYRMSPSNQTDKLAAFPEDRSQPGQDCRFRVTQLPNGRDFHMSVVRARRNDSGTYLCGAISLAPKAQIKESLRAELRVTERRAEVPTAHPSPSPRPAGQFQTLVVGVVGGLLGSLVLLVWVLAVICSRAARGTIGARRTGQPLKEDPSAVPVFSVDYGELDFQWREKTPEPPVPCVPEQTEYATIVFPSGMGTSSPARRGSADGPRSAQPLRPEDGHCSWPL
Method: (§1) Various concentrations of the testing hybridoma antibodies were added to the cell suspension and incubated at 4° C. for 60 minutes in 96 well plates. […] Plates were washed 3 times, and mouse anti-biotin PE antibody (Biolgend, cat# 409004) was added. Flow cytometric analyses were performed using a FACS Array.
(§2) Freestyle 293 cells (200 mL at 10⁶/mL) were transfected with 100 μg of each of the chimeric heavy and light chain expression plasmids and cultured for 6 days. The chimeric antibody in the supernatant was then purified with Protein-G column (GE healthcare).

Row | Binder | IC50 [µg/mL]
1 | B1 | 0.054
2 | B2 | 0.101
3 | B3 | 0.0843

What follows are binders tested against T2, human PD-1 extracellular domain fused with mouse Fc (PD-1-mFc) (human, UniProt Q15116 25-170) (assay: blockage ELISA, coated PD-1-mFc, competitor PDL-1-mFc-biotin).
T2 construct: extracellular domain; not used because of the label; also called hPD-1-mFc; human PD-1-mouse Fc fusion protein
T2 sequence (Q15116 25-170): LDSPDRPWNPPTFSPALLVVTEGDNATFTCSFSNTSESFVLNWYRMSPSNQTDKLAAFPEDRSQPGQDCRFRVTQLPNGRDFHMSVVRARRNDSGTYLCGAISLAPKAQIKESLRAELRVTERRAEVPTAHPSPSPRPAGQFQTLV
Method: (§3) PD-1-mFc antigen (CrownBio) was suspended in PBS (Hyclone,Cat No:SH30256.01B) buffer (2 ug/ml, 100 ul/ well) and coated on the 96 well plate (costar, Cat No.:9018) 4° C. overnight. Plates were washed 3 times using washing buffer: PBS+0.05% Tween 20(Sigma, Cat No.:P1379). 200 ul of blocking buffer (PBS+1%BSA(Roche, Cat No.:738328)), was added to each well, incubated at 37° C. for 1 hour, and washed 3 times. Various concentrations (suitable dilutions of hybridoma supernatant in PBS) of the anti-PD-1 Abs were added to the wells (100 μl/well) and incubated at 37° C. for 1 hour. […] Secondary antibody (Avidin HRP eBioscience cat No.:E07418-1632, 1:500, 100 ul/well) was added, incubated at 37 ° C. for 0.5 hour, and washed 3 times. TMB (Sigma, Cat No.: T0440, 100 ul/well) was added, and incubated for 3 min at RT. To stop the reaction, 2N H2SO4 (100 ul/well), was added. The colorimetric signals were developed and read at 450 nm using a Auto Plate SpectraMax Plus (Supplier: Molecular Devices; Model: MNR0643; Software: SoftMax Pro v5.4).
(§4) The purified hybridoma antibodies were characterized further based on ELISA and FACS analyses.

Row | Binder | IC50 [µg/mL]
4 | B4 | 0.923
5 | B5 | 1.41
6 | B6 | 1.13

Biological target: T1, human PD-1 on cells (293T cells …)
Test: FACS blockage on hPD-1-293T cells, competitor biotin PD-L1
Remark: another data set of the same source
Method: as §1, §4

Row | Binder | IC50 [µg/mL]
7 | B4 | 0.0211
8 | B5 | 0.0369
9 | B6 | 0.0282

What follows are binders tested against T3, human PD-1 (construct not stated) (human, UniProt Q15116 25-167, limits assumed) (assay: Biacore (summary table; unit from Table 7)).
T3 construct: also called PD-1 analyte
T3 sequence (Q15116 25-167 limits assumed): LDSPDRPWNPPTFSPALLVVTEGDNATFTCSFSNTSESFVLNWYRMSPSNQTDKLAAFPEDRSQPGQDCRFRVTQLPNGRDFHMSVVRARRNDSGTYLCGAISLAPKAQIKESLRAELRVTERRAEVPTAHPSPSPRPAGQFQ
Method: (§5) To further characterize the binding characteristics of the antibodies, 10 hybridoma antibodies were profiled using Biacore (Biacore 3000, GE) to elucidate binding kinetics and calculate equilibrium binding constants. This assay was performed by capture method, using the mouse antibody capture kit (BR-1008-38, GE). After diluting anti-mouse Fc mab to 25 μg/ml in pH 5.0 immobilization buffer, immobilization was conducted with the parameters shown in Table 6 at a flow rate of 5 μl/min. The kinetic runs were done by 1) injecting ligand for typical 0.5-1 min at flow rate of 10 μl/min.; 2) injecting analytes of choice for typical 3 min followed by dissociation in running buffer (1× PBS-P20) for typical 5-10 min at flow rate of 30 μl/min.; and 3) injecting regeneration solution 10 mM Glycine pH1.7 for typical 1-2 min at flow rate of 10 μl/min.

Row | Binder | Kd [pM]
10 | B4 | 30
11 | B5 | 62.3
12 | B6 | 58.7

What follows are binders tested against T2, human PD-1 extracellular domain fused … (assay: blockage ELISA, competitor PDL-1-mFc-biotin (summary table; IC50 in ng/ml in Table 2)).
Method: as §3

Row | Binder | IC50 [µg/mL]
13 | B4 | 0.923
14 | B5 | 1.41
15 | B6 | 1.13

Each binder was assayed against T4, human ICOS (human, UniProt Q9Y6W8 21-140, limits assumed) (assay: Interaction with CTLA4, ICOS CD28; assay not detailed).
T4 sequence (looked up): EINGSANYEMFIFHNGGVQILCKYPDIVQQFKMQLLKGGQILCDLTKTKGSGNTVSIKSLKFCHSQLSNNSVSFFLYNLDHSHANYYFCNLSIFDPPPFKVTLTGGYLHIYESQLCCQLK

Row | Binder | binding result
16 | B4 | no binding
17 | B5 | no binding
18 | B6 | no binding

What follows are binders tested against T5, human CTLA4 (human, UniProt P16410 36-161, limits assumed) in the same assay as above.
T5 sequence (looked up): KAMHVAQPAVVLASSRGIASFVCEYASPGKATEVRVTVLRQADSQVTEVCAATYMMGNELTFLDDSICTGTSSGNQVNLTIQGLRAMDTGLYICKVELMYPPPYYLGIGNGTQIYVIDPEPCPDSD

Row | Binder | binding result
19 | B4 | no binding
20 | B5 | no binding
21 | B6 | no binding

Each binder was assayed against human CD28 (human, UniProt P10747 19-152, limits assumed) in the same assay as above.
Sequence of human CD28 (P10747 19-152 limits assumed): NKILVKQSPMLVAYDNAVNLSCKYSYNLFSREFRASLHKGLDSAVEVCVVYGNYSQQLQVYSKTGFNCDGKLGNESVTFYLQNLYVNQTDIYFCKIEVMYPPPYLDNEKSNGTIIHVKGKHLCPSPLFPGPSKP

Row | Binder | binding result
22 | B4 | no binding
23 | B5 | no binding
24 | B6 | no binding

Each binder was assayed against T1, human PD-1 on cells (293T cells …) (assay: FACS on hPD-1-293T cells).
Method: The cells were incubated with the indicated antibody (20 ug/ml with the dilution of ⅕) at 4° C. for 1 h. Cells were washed three times with FACS buffer. A secondary antibody (PE Goat anti-mouse: 1:200; PE mouse anti-human: 1:10) was added to the cells at 100 ul/well, and incubated at 4° C. for 40min. Cells were washed three times with FACS buffer and analyzed by FACS Array.
as §2

Row | Binder | EC50 [µg/mL]
25 | B1 | 0.143
26 | B7 | 0.131
27 | B2 | 0.244
28 | B3 | 0.145

Each binder was assayed against T6, human PD-1 extracellular domain fused with human Fc tag (hPD-1-hFc) (human) (assay: ELISA on coated PD1-hFc).
T6 construct: also called human PD-1-hFc
T6 sequence (chain, as listed by the source limits assumed): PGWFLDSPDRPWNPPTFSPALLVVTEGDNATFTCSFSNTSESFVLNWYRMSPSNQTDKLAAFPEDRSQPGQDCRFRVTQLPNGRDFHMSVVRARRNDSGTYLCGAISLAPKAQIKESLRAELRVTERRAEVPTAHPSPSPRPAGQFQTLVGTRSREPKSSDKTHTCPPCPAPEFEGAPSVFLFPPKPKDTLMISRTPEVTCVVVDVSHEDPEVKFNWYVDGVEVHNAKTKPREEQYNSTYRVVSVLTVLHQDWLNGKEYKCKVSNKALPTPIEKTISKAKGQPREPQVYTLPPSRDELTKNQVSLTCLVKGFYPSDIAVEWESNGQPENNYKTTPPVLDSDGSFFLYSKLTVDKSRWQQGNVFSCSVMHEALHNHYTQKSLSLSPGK
Method: (§6) ELISA binding analysis was conducted based on human PD-1-hFc Protein. 96-well plates (Costar, Cat No:9018) were coated with 100 μL of 2 μg/ml PD1-hFc (CrownBio) in coating buffer (PBS, Hyclone, Cat No:SH30256.01B) overnight at 4° C. The wells were aspirated and non-specific binding sites were blocked by adding 200 μL of blocking buffer with 1% (w/v) of bovine serum albumin (BSA, Roche, Cat No: 738328) and incubating for 1 hour at 37° C. After the plates are washed three times with wash buffer (PBS with 0.05%(v/v) Tween20 (Sigma, Cat No:P1379), 100 μL/well of a suitable dilutions of hybridoma supernatant in blocking buffer were added and incubated at room temperature for 1 hour. The plates were washed and incubated with 100 μL/well of Goat anti-Mouse IgG (H+L) (Thermo, Cat No: 31432) in blocking buffer for 60 min. After the plates were washed, 100 μL/well of substrate solution (TMB(eBioscience, Cat No:00-4201-56) was added and the plates were incubated for 2min at room temperature. 100 μL/well of stop solution (2N H2SO4) was added to stop the reaction. The colorimetric signals were developed and read at 450 nm using a Auto Plate SpectraMax Plus (Supplier: Molecular Devices; Model: MNR0643; Software: SoftMax Pro v5.4).
as §4

Row | Binder | EC50 [µg/mL]
29 | B4 | 0.00707
30 | B5 | 0.0172
31 | B6 | 0.0112

The binders below were run against T6, human PD-1 extracellular domain fused … (assay: ELISA binding (summary table)).
Method: as §6, §4

Row | Binder | EC50 [µg/mL]
32 | B4 | 0.00707
33 | B5 | 0.0172
34 | B6 | 0.0112

Biological target: T2, human PD-1 extracellular domain fused …
Test: blockage ELISA, coated PD-1-mFc, competitor PDL-1-mFc-biotin
Remark: another data set of the same source
Method: as §3, §2

Row | Binder | IC50 [µg/mL]
35 | B1 | 0.869
36 | B7 | 0.948
37 | B2 | 1.37
38 | B3 | 1.01

What follows are binders tested against T3, human PD-1 (construct not stated) (assay: Biacore, antibody captured, PD-1 analyte).
Method: as §5

Row | Binder | Ka [M⁻¹] | Kd [pM] | koff [s⁻¹] | kon [M⁻¹ s⁻¹]
39 | B4 | 3.33e+10 | 30 | 4.52e-05 | 1.51e+06
40 | B5 | 1.6e+10 | 62.3 | 5.24e-05 | 840000
41 | B6 | 1.7e+10 | 58.7 | 7.55e-05 | 1.29e+06

The binders below were run against T1, human PD-1 on cells (293T cells …) (assay: FACS blockage on hPD-1-293T cells, competitor biotin PD-L2).
Method: as §1, §4

Row | Binder | IC50 [µg/mL]
42 | B4 | 0.092
43 | B5 | 0.15
44 | B6 | 0.0188

The binders below were run against T7, mouse PD-1 (mouse, UniProt Q02242 25-169, limits assumed) (assay: assays not detailed).
T7 sequence (looked up): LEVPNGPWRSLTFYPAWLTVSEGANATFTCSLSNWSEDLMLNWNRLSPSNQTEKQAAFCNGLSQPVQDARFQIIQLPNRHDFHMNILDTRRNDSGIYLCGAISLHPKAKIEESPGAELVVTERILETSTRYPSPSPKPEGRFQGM

Row | Binder | binding result
45 | B4 | no binding
46 | B5 | no binding
47 | B6 | no binding

Biological target: T6, human PD-1 extracellular domain fused …
Test: ELISA on coated PD1-hFc
Remark: another data set of the same source
Method: as §6, §2

Row | Binder | EC50 [µg/mL]
48 | B1 | 0.0325
49 | B7 | 0.0517
50 | B2 | 0.0818
51 | B3 | 0.0413
